Relative binding activity data for ten molecules are collected here from patent US20230257470A1 (published 2023).

B1: GpH7-B3/GpL16-k0 variant P271T (antibody, human IgG1)
heavy: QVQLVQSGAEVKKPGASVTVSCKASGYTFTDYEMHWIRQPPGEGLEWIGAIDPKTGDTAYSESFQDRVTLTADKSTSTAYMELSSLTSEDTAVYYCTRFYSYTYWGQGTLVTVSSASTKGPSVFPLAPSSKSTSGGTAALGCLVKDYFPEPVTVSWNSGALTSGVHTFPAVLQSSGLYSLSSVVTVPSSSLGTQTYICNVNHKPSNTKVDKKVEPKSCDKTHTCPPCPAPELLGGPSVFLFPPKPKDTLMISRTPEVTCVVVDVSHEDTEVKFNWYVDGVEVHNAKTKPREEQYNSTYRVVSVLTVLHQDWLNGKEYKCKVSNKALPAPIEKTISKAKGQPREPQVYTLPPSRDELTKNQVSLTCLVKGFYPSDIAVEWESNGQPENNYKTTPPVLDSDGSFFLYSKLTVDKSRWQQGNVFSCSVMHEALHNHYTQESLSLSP
light: DIVMTQSPLSLPVTPGEPASISCQASESLVHSNRNTYLHWYLQKPGQSPQLLIYKVSNRFSGVPDRFSGSGSGTDFTLKISRVEAEDVGVYYCSQNTHVPPTFGQGTKVEIE
notes: also called B3 variant; copies: 2 + 2
B2: GpH7-B3/GpL16-k0 variant Q295D (antibody, human IgG1)
heavy: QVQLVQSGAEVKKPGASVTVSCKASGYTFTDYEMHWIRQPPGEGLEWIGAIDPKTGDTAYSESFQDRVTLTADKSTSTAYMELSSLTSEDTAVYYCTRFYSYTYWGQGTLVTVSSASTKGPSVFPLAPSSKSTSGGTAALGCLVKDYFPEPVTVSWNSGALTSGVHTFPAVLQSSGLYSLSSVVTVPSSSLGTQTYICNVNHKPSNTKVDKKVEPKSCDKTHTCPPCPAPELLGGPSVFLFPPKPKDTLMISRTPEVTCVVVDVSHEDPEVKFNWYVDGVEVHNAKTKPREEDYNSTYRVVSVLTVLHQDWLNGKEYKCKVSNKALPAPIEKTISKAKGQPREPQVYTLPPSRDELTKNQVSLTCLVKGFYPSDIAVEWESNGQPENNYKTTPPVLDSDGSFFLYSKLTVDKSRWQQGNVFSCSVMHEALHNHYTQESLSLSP
light: B1 light
notes: as for B1
B3: GpH7-B3/GpL16-k0 variant P271W (antibody, human IgG1)
heavy: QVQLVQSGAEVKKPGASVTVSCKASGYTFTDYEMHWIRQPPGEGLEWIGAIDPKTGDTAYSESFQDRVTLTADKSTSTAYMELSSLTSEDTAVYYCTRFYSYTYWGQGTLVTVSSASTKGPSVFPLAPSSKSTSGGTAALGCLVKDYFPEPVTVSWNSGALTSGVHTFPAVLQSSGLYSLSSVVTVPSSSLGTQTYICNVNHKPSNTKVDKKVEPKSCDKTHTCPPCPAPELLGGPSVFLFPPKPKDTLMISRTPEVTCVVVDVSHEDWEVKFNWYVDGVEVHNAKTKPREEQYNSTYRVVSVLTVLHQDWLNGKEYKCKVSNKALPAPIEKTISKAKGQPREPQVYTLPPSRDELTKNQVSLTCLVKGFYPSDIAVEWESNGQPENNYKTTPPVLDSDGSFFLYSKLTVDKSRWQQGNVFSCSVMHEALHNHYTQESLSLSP
light: B1 light
notes: as for B1
B4: GpH7-B3/GpL16-k0 variant Q295N (antibody, human IgG1)
heavy: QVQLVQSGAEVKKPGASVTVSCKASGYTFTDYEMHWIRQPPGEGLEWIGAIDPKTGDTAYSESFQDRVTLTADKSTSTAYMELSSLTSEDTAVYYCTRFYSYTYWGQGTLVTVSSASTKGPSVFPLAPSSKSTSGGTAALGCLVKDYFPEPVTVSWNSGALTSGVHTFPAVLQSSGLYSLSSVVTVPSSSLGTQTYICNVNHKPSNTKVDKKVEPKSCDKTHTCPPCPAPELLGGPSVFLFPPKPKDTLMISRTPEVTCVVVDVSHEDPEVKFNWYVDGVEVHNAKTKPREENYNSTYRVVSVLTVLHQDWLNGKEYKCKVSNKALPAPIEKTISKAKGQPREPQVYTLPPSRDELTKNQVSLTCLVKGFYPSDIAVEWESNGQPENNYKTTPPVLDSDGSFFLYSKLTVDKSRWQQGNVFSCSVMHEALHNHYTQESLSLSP
light: B1 light
notes: as for B1
B5: GpH7-B3/GpL16-k0 variant Q295R (antibody, human IgG1)
heavy: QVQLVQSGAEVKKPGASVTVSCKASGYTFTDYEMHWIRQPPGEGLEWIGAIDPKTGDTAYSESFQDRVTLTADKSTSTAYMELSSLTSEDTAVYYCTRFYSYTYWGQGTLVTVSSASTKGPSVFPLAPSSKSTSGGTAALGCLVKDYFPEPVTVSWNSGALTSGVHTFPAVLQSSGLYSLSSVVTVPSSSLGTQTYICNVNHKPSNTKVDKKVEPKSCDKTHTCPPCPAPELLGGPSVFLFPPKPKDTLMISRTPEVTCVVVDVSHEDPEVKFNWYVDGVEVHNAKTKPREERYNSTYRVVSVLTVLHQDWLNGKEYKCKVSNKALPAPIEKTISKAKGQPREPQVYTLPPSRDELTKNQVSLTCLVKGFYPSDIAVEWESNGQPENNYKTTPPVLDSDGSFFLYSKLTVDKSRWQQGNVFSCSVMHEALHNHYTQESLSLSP
light: B1 light
notes: as for B1
B6: GpH7-B3/GpL16-k0 variant Q295S (antibody, human IgG1)
heavy: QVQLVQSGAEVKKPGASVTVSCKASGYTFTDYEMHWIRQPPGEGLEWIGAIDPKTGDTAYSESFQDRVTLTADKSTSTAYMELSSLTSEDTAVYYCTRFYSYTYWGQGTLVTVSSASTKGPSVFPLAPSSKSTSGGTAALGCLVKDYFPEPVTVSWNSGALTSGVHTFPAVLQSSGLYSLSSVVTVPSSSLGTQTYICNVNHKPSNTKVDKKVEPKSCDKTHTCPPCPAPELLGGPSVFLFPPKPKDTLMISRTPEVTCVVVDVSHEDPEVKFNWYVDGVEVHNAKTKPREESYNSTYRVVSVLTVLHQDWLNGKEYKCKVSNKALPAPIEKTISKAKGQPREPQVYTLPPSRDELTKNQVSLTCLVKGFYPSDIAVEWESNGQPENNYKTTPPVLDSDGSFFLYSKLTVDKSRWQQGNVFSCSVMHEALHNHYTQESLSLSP
light: B1 light
notes: as for B1
B7: GpH7-B3/GpL16-k0 variant P271Y (antibody, human IgG1)
heavy: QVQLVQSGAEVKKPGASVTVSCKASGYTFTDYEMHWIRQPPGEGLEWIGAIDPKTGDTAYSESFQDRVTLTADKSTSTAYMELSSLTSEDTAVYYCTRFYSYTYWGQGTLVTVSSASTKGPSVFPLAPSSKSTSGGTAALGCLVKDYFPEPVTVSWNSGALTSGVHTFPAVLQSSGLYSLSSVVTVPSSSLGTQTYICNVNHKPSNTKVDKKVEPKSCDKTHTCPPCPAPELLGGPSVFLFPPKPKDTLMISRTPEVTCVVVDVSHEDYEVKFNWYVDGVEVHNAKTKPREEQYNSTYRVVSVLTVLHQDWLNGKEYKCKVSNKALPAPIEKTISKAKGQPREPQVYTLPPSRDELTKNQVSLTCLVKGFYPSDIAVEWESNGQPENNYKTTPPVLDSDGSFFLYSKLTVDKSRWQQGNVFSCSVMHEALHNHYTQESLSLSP
light: B1 light
notes: as for B1
B8: GpH7-B3/GpL16-k0 variant Q295F (antibody, human IgG1)
heavy: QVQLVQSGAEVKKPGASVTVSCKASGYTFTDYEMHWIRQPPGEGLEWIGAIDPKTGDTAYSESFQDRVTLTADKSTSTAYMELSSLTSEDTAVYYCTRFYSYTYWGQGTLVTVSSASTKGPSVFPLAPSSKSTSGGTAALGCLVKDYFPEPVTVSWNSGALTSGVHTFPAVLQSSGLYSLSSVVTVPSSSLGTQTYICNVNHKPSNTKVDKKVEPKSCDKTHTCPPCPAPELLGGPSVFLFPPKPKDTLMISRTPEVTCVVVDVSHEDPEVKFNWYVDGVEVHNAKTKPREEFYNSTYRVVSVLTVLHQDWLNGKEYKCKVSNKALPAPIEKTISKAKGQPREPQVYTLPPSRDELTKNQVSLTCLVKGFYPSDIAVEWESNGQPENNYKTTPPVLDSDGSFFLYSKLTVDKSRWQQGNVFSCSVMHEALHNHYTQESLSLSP
light: B1 light
notes: as for B1
B9: GpH7-B3/GpL16-k0 variant Q295H (antibody, human IgG1)
heavy: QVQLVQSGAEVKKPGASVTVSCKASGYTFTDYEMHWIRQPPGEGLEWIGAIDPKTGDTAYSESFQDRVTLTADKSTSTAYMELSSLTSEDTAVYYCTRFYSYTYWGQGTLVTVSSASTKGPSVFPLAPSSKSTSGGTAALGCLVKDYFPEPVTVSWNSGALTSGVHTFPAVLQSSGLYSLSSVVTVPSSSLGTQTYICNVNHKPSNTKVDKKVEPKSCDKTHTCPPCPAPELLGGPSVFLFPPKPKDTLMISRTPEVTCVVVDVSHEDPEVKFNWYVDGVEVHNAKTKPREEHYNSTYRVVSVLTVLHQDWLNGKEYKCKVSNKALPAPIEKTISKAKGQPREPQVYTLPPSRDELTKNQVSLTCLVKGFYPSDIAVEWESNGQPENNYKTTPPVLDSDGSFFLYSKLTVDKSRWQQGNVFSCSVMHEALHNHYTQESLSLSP
light: B1 light
notes: as for B1
B10: GpH7-B3/GpL16-k0 variant Q295G (antibody, human IgG1)
heavy: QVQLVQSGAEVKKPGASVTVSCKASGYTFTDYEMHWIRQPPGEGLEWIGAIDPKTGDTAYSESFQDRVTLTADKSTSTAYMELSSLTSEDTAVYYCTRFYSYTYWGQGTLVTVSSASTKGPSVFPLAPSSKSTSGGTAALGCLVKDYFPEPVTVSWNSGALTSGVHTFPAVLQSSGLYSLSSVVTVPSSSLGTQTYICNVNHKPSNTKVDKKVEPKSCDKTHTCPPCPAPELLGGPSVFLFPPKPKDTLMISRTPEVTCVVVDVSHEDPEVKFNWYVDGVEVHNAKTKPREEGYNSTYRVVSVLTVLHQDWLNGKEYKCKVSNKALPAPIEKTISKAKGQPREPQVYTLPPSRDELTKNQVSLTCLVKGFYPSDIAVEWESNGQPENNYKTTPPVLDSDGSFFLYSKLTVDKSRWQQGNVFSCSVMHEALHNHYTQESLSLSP
light: B1 light
notes: as for B1

Substitutions are numbered along the chain they refer to.

T1 sequence (P12314 16-292 limits assumed): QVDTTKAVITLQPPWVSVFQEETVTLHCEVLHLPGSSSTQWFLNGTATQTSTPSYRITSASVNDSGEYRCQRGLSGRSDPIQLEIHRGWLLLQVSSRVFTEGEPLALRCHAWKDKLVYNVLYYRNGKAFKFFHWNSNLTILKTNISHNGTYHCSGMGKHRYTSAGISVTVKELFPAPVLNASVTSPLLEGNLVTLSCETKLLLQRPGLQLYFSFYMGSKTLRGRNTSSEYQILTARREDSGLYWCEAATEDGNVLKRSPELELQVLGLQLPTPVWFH

One experiment has as its target T1, human FcγRIa (human, UniProt P12314 16-292, limits assumed).
T1 construct: also called FcgRIa; CD64
In words: SPR (Biacore), antibody captured, FcγR as analyte; amount bound / that of GpH7-B3/GpL16-k0 x 100.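 Further: FcγR binding response divided by the captured antibody amount before comparison, measured at 25 °C.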 On the technique in general: SPR reads the build-up and loss of mass on a sensor chip optically.
Description: (§1) Interaction between each modified antibody and Fcγ receptor prepared in the manner described above was analyzed using the BIACORE™ T100 surface plasmon resonance system (GE Healthcare), BIACORE™ T200 surface plasmon resonance system (GE Healthcare), BIACORE™ A100 surface plasmon resonance system or BIACORE™ 4000 surface plasmon resonance system. HBS-EP+(GE Healthcare) was used for the running buffer, and measurements were carried out at 25° C. The chips used were chips in which antigen peptides, Protein A (Thermo Scientific), Protein A/G (Thermo Scientific) or Protein L (ACTIGEN® protein (Alltech or BioVision) were immobilized on the Series S Sensor Chip CM5 (GE Healthcare) or Series S Sensor Chip CM4 (GE Healthcare) by amine coupling, or chips in which preliminarily biotinylated antigen peptides were allowed to interact and then immobilized on the Series S Sensor Chip SA (certified) (GE Healthcare). The target antibodies were captured on these sensor chips, Fcγ receptor diluted with the running buffer was allowed to interact, followed by measurement of the amount of bound antibody. The amounts bound were compared between antibodies. However, since the amount of Fcγ receptor bound depends on the amount of captured antibody, the values used for comparison were first corrected by dividing the amount of Fcγ receptor bound by the captured amount of each antibody. Through reaction with 10 mM glycine-HCl at pH 1.5, the sensor chips were regenerated by washing off antibody captured on the sensor chips and used repeatedly.
(§2) Binding strength was evaluated according to the following method based on the results of analyzing the interaction with each FcγR. […] That value was then further multiplied by 100, and the resulting value was used as an indicator of relative binding activity to each FcγR.
B1: the relative binding activity came out at 98 GpH7-B3/GpL16-k0 = 100.
Consider B2, for which the relative binding activity came to 95 GpH7-B3/GpL16-k0 = 100.
Turning to B3, the relative binding activity is 100 GpH7-B3/GpL16-k0 = 100.
In the case of B4, the relative binding activity was 99 GpH7-B3/GpL16-k0 = 100.
B5 returned a relative binding activity of 100 GpH7-B3/GpL16-k0 = 100.
Still for that read-out and setting: with B6 the figure was 100 GpH7-B3/GpL16-k0 = 100; with B7, 98 GpH7-B3/GpL16-k0 = 100.
Consider B8, for which the relative binding activity was found to be 99 GpH7-B3/GpL16-k0 = 100.
In the case of B9, the relative binding activity was determined as 97 GpH7-B3/GpL16-k0 = 100.
The same measure, in the same setting: with B10 the figure was 89 GpH7-B3/GpL16-k0 = 100.

In a further experiment the target is T2, human FcγRIIa(R) (human, UniProt P12318 36-217).
T2 construct: also called FcgRIIaR; FcγRIIa type R
T2 chain: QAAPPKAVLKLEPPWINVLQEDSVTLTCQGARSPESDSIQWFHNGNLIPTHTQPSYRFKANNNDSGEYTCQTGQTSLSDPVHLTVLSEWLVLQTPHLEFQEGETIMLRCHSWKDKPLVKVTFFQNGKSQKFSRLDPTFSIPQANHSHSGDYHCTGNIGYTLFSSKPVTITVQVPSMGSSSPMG
The description is as above.
Description: as §1, §2
B1 displayed a relative binding activity of 73 GpH7-B3/GpL16-k0 = 100.
On the same count and under the same terms, the result for B2 reads 43 GpH7-B3/GpL16-k0 = 100.
Molecule B3 displayed a relative binding activity of 46 GpH7-B3/GpL16-k0 = 100.
Still for that read-out and setting: with B4 the figure was 56 GpH7-B3/GpL16-k0 = 100; with B5, 61 GpH7-B3/GpL16-k0 = 100.
B6 registered a relative binding activity of 52 GpH7-B3/GpL16-k0 = 100.
For B7, the relative binding activity was found to be 38 GpH7-B3/GpL16-k0 = 100.
For B8, the relative binding activity came to 46 GpH7-B3/GpL16-k0 = 100.
Still for that read-out and setting: the result for B9 reads 45 GpH7-B3/GpL16-k0 = 100; that for B10, 36 GpH7-B3/GpL16-k0 = 100.

A further experiment addresses T3, human FcγRIIa(H) (human, UniProt P12318 36-217).
T3 construct: also called FcgRIIaH; FcγRIIa type H
T3 sequence: T2 chain with R133H
The experiment is described as above.
Description: as §1, §2
B1 registered a relative binding activity of 42 GpH7-B3/GpL16-k0 = 100.
In turn, B2 yielded a relative binding activity of 37 GpH7-B3/GpL16-k0 = 100.
The same measure, in the same setting: with B3 the figure was 75 GpH7-B3/GpL16-k0 = 100.
Same read-out and setting: with B4 the figure was 74 GpH7-B3/GpL16-k0 = 100.
Still for that read-out and setting: with B5 the figure was 94 GpH7-B3/GpL16-k0 = 100.
Consider B6, for which the relative binding activity stood at 67 GpH7-B3/GpL16-k0 = 100.
B7 showed a relative binding activity of 48 GpH7-B3/GpL16-k0 = 100.
Same read-out and setting: the result for B8 reads 74 GpH7-B3/GpL16-k0 = 100; that for B9, 78 GpH7-B3/GpL16-k0 = 100; that for B10, 41 GpH7-B3/GpL16-k0 = 100.

A further experiment deals with T4, human FcγRIIb (human, UniProt P31994 43-217, limits assumed).
T4 construct: also called FcgRIIb; FcγIIB
T4 sequence: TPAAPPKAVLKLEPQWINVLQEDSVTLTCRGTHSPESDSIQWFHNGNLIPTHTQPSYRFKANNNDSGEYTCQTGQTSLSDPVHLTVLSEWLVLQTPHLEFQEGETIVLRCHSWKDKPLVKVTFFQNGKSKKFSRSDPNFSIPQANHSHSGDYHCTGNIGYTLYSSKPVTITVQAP
The experiment is described as above.
Description: as §1, §2
The molecule B1 gave a relative binding activity of 78 GpH7-B3/GpL16-k0 = 100.
The molecule B2 displayed a relative binding activity of 40 GpH7-B3/GpL16-k0 = 100.
Same read-out and setting: with B3 the figure was 33 GpH7-B3/GpL16-k0 = 100; with B4, 41 GpH7-B3/GpL16-k0 = 100; with B5, 46 GpH7-B3/GpL16-k0 = 100.
B6: the relative binding activity came to 40 GpH7-B3/GpL16-k0 = 100.
Still for that read-out and setting: the result for B7 reads 28 GpH7-B3/GpL16-k0 = 100; that for B8, 30 GpH7-B3/GpL16-k0 = 100; that for B9, 29 GpH7-B3/GpL16-k0 = 100.
B10 registered a relative binding activity of 28 GpH7-B3/GpL16-k0 = 100.

The target of another experiment is T5, human FcγRIIIa(F) (human, UniProt P08637 17-208, limits assumed).
T5 construct: also called FcgRIIIaF; FcγRIIIa allotype F158
T5 sequence (P08637 other isoform, or with tags, fused parts or gaps limits assumed): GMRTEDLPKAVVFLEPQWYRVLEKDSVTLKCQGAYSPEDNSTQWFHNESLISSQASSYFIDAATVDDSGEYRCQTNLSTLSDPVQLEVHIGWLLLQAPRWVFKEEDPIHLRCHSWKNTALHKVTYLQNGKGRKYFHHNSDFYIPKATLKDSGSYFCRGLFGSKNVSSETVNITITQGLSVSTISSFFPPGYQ
The experiment is described as above.
Description: as §1, §2
B1 yielded a relative binding activity of 31 GpH7-B3/GpL16-k0 = 100.
The same measure, in the same setting: with B2 the figure was 64 GpH7-B3/GpL16-k0 = 100; with B3, 57 GpH7-B3/GpL16-k0 = 100.
The same measure, in the same setting: with B4 the figure was 68 GpH7-B3/GpL16-k0 = 100.
The same measure, in the same setting: with B5 the figure was 52 GpH7-B3/GpL16-k0 = 100; with B6, 87 GpH7-B3/GpL16-k0 = 100; with B7, 33 GpH7-B3/GpL16-k0 = 100.
Turning to B8, the relative binding activity worked out at 46 GpH7-B3/GpL16-k0 = 100.
Turning to B9, the relative binding activity is 52 GpH7-B3/GpL16-k0 = 100.
B10 came in with a relative binding activity of 55 GpH7-B3/GpL16-k0 = 100.
